B1: PHF12^ΔC-terminus (residues 1-502) (domain or fragment, human, UniProt Q96QT6 1-502, looked up)
chain: MWEKMETKTIVYDLDTSGGLMEQIQALLAPPKTDEAEKRSRKPEKEPRRSGRATNHDSCDSCKEGGDLLCCDHCPAAFHLQCCNPPLSEEMLPPGEWMCHRCTVRRKKREQKKELGHVNGLVDKSGKRTTSPSSDTDLLDRSASKTELKAIAHARILERRASRPGTPTSSASTETPTSEQNDVDEDIIDVDEEPVAAEPDYVQPQLRRPFELLIAAAMERNPTQFQLPNELTCTTALPGSSKRRRKEETTGKNVKKTQHELDHNGLVPLPVKVCFTCNRSCRVAPLIQCDYCPLLFHMDCLEPPLTAMPLGRWMCPNHIEHVVLNQKNMTLSNRCQVFDRFQDTVSQHVVKVDFLNRIHKKHPPNRRVLQSVKRRSLKVPDAIKSQYQFPPPLIAPAAIRDGELICNGIPEESQMHLLNSEHLATQAEQQEWLCSVVALQCSILKHLSAKQMPSHWDSEQTEKADIKPVIVTDSSVTTSLQTADKTPTPSHYPLSCPSGIST
notes: PHF12, human, residues 1-502; lacks the poorly conserved and unstructured C-terminus; subunit of the SIN3B complex sample; also called PHF12^∆C-terminus; PHF12 residues 1-502; source: High Five insect cells, co-infected with baculoviruses of each subunit; co-purified (Strep-Tactin, GSTrap, Superose 6 SEC)
B2: PHF12 (full-length) (natural protein, human, UniProt Q96QT6 1-1004, looked up)
chain: MWEKMETKTIVYDLDTSGGLMEQIQALLAPPKTDEAEKRSRKPEKEPRRSGRATNHDSCDSCKEGGDLLCCDHCPAAFHLQCCNPPLSEEMLPPGEWMCHRCTVRRKKREQKKELGHVNGLVDKSGKRTTSPSSDTDLLDRSASKTELKAIAHARILERRASRPGTPTSSASTETPTSEQNDVDEDIIDVDEEPVAAEPDYVQPQLRRPFELLIAAAMERNPTQFQLPNELTCTTALPGSSKRRRKEETTGKNVKKTQHELDHNGLVPLPVKVCFTCNRSCRVAPLIQCDYCPLLFHMDCLEPPLTAMPLGRWMCPNHIEHVVLNQKNMTLSNRCQVFDRFQDTVSQHVVKVDFLNRIHKKHPPNRRVLQSVKRRSLKVPDAIKSQYQFPPPLIAPAAIRDGELICNGIPEESQMHLLNSEHLATQAEQQEWLCSVVALQCSILKHLSAKQMPSHWDSEQTEKADIKPVIVTDSSVTTSLQTADKTPTPSHYPLSCPSGISTQNSLSCSPPHQSPALEDIGCSSCAEKSKKTPCGTANGPVNTEVKANGPHLYSSPTDSTDPRRLPGANTPLPGLSHRQGWPRPLTPPAAGGLQNHTVGIIVKTENATGPSSCPQRSLVPVPSLPPSIPSSCASIENTSTLQRKTVQSQIGPPLTDSRPLGSPPNATRVLTPPQAAGDGILATTANQRFSSPAPSSDGKVSPGTLSIGSALTVPSFPANSTAMVDLTNSLRAFMDVNGEIEINMLDEKLIKFLALQRIHQLFPSRVQPSPGSVGTHQLASGGHHIEVQRKEVQARAVFYPLLGLGGAVNMCYRTLYIGTGADMDVCLTNYGHCNYVSGKHACIFYDENTKHYELLNYSEHGTTVDNVLYSCDFSEKTPPTPPSSIVAKVQSVIRRRRHQKQDEEPSEEAAMMSSQAQGPQRRPCNCKASSSSLIGGSGAGWEGTALLHHGSYIKLGCLQFVFSITEFATKQPKGDASLLQDGVLAEKLSLKPHQGPVLRSNSVP
notes: PHF12, human, full-length; subunit of the SIN3B^FL sample; also called plant homeodomain (PHD) containing protein PHF12; source: High Five insect cells, co-infected with baculoviruses of each subunit; co-purified (Strep-Tactin, GSTrap, Superose 6 SEC)
B3: SIN3B isoform 2 (natural protein, human, UniProt O75182-2 1-1130, looked up)
chain: MAHAGGGSGGSGAGGPAGRGLSGARWGRSGSAGHEKLPVHVEDALTYLDQVKIRFGSDPATYNGFLEIMKEFKSQSIDTPGVIRRVSQLFHEHPDLIVGFNAFLPLGYRIDIPKNGKLNIQSPLTSQENSHNHGDGAEDFKQQVPYKEDKPQVPLESDSVEFNNAISYVNKIKTRFLDHPEIYRSFLEILHTYQKEQLNTRGRPFRGMSEEEVFTEVANLFRGQEDLLSEFGQFLPEAKRSLFTGNGPCEMHSVQKNEHDKTPEHSRKRSRPSLLRPVSAPAKKKMKLRGTKDLSIAAVGKYGTLQEFSFFDKVRRVLKSQEVYENFLRCIALFNQELVSGSELLQLVSPFLGKFPELFAQFKSFLGVKELSFAPPMSDRSGDGISREIDYASCKRIGSSYRALPKTYQQPKCSGRTAICKEVLNDTWVSFPSWSEDSTFVSSKKTPYEEQLHRCEDERFELDVVLETNLATIRVLESVQKKLSRMAPEDQEKFRLDDSLGGTSEVIQRRAIYRIYGDKAPEIIESLKKNPVTAVPVVLKRLKAKEEEWREAQQGFNKIWREQYEKAYLKSLDHQAVNFKQNDTKALRSKSLLNEIESVYDEHQEQHSEGRSAPSSEPHLIFVYEDRQILEDAAALISYYVKRQPAIQKEDQGTIHQLLHQFVPSLFFSQQLDLGASEESADEDRDSPQGQTTDPSERKKPAPGPHSSPPEEKGAFGDAPATEQPPLPPPAPHKPLDDVYSLFFANNNWYFFLRLHQTLCSRLLKIYRQAQKQLLEYRTEKEREKLLCEGRREKGSDPAMELRLKQPSEVELEEYYPAFLDMVRSLLEGSIDPTQYEDTLREMFTIHAYVGFTMDKLVQNIARQLHHLVSDDVCLKVVELYLNEKKRGAAGGNLSSRCVRAARETSYQWKAERCMADENCFKVMFLQRKGQVIMTIELLDTEEAQTEDPVEVQHLARYVEQYVGTEGASSSPTEGFLLKPVFLQRNLKKFRRRWQSEQARALRGEARSSWKRLVGVESACDVDCRFKLSTHKMVFIVNSEDYMYRRGTLCRAKQVQPLVLLRHHQHFEEWHSRWLEDNVTVEAASLVQDWLMGEEDEDMVPCKTLCETVHVHGLPVTRYRVQYSRRPASP
notes: SIN3B isoform 2, human, UniProt O75182-2; codon-optimised cDNA; numbers count on: isoform 2 (O75182-2); Tag removed with 3C protease; RbBP7 was co-expressed to keep SIN3B soluble; also called SIN3 scaffold subunit; corepressor SIN3B; source: High Five insect cells, co-infected with baculoviruses of each subunit; co-purified (Strep-Tactin, GSTrap, Superose 6 SEC); not shown: StrepII, C-terminal, …

Key:
Conditions in all cases: both partners purified
SIN3B isoform 2 [1] = target: B3; assay: cross-linking; XL-MS: freshly purified SIN3B complex at 1.7 μM with DSSO, on ice for 10 min, quenched with Tris pH 8, trypsin digest, LC-MS
HDAC2 = target: T1, HDAC2 (human, UniProt Q92769 1-488); assay: cryo-EM structure; apo SIN3B complex; SIN3B^FL sample (full-length PHF12, 3.4 Å), SIN3B complex sample (PHF12 1-502, 3.7 Å) and SIN3B^core map (2.8 Å); subunits co-expressed with RbBP7 and co-purified, GraFix (glutaraldehyde) treated
T1 construct: HDAC2, human; codon-optimised cDNA; No tag is named for HDAC2; also called histone deacetylase 2; catalytic HDAC module; source: High Five insect cells, co-infected with baculoviruses of each subunit; co-purified (Strep-Tactin, GSTrap, Superose 6 SEC)
T1 sequence (Q92769 whole entry): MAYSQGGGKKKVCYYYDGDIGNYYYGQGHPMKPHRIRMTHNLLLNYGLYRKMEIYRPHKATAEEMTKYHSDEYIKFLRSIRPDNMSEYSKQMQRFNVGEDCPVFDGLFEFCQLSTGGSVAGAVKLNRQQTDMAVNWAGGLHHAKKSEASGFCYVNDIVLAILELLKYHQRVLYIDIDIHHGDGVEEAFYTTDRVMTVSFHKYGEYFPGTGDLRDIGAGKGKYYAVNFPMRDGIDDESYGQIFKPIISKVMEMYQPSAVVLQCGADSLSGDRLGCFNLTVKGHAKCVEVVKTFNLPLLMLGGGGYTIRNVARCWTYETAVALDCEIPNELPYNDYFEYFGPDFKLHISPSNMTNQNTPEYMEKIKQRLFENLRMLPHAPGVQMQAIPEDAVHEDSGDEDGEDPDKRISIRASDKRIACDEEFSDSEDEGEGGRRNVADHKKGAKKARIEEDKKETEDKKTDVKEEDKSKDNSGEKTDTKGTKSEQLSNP

[2] = target: T2, MORF4L1 (mortality factor 4-like 1) (human, UniProt Q9UBU8 1-362); assay: as above
T2 construct: MORF4L1, human; codon-optimised cDNA; Tag removed with 3C protease; also called MRG and chromo domain-containing protein; source: High Five insect cells, co-infected with baculoviruses of each subunit; co-purified (Strep-Tactin, GSTrap, Superose 6 SEC); not shown: GST, N-terminal, cleaved
T2 sequence (Q9UBU8 whole entry, the tested form may be a part): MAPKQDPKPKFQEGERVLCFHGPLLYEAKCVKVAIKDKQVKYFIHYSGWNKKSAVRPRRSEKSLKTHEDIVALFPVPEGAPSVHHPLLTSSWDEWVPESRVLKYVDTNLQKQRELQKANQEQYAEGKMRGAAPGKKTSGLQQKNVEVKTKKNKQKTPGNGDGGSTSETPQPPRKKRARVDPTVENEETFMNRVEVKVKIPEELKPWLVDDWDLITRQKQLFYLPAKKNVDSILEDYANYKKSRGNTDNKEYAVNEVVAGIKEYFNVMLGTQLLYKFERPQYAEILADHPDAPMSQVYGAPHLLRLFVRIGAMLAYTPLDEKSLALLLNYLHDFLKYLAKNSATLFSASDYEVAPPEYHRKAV

SIN3B isoform 2 [3] = target: B3; assay: as above

B1
binding result (SIN3B isoform 2 [1]): binds

B2
stoichiometry N (HDAC2): 1 | stoichiometry N [2]: 1 | stoichiometry N (SIN3B isoform 2 [3]): 1

B3
stoichiometry N (HDAC2): 1

Source: publication PMC10156912, “Mechanism of assembly, activation and lysine selection by the SIN3B histone deacetylase complex” (Nature Communications, 2023)
